# Laboratory results reported in publication PMC3946051 (Molecular microbiology, 2014).
# B1: CrtJ (natural protein, R. capsulatus, UniProt P26167 1-469, looked up)
# chain: MTSDGSFLMRREALQRVSPDLLADIVTSACDIALVVSPGRVVESVMVNPQFGSAERFAAWQGARLSQLFSPESAQKLENRLADGPEPGRSLQLELTHAADAFTLPVRYTITRSGEDGTLLLIGRDMQPLAEVQQQLVKAQLALERDYEAQREIETRYRVLLEAHPAPLLIVSMSTGRIADLNLAAAAMIGATRAELIDAPVGQELDGRRRGEFLENLAKIAGSDPLGAVELTIRRSRRKVTVTATLFRAAGDRLLLCRLGEAEARRTRVDDTVELSERLFLKGIDAMVFLDADGTIRAANDAFLYLTDAGSAALVQGRSFADFLSRGAVDLNVLLDNVKRIGHLRHYVTRLNTDFSGQVTVELSATLFHDRATPTIALVIRDSNLADATRIMPGMASNEGLRNVMQMVGYATLRDIVSETTEIIEKMCIETALELTGNNRVAAAELLSLSRQSLYVKLRKFGLLSKDAE
# Experiments:
# CrtJ (R. capsulatus) [1] = biological target: CrtJ (R. capsulatus) (UniProt P26167); test: SEC
# CrtJ (R. capsulatus) [2] = biological target: CrtJ (R. capsulatus) (UniProt P26167); test: MST
# SEC = biological target: the molecule itself; test: SEC
Molecule,stoichiometry N (CrtJ (R. capsulatus) [1]),EC50 (CrtJ (R. capsulatus) [2]) [µM],stoichiometry N (SEC)
AerR:B12 (natural protein),1,3.3,
B1,,,2
